# Measured values from patent publication US20260199447A1 (US Dept. of Health and Human Services, published 2026).
# T1: VEEV Env-pseudotyped lentiviral reporter virus (Venezuelan equine encephalitis virus …, UniProt P09592 813-1254; P09592 335-757)
# T1 sequence 1: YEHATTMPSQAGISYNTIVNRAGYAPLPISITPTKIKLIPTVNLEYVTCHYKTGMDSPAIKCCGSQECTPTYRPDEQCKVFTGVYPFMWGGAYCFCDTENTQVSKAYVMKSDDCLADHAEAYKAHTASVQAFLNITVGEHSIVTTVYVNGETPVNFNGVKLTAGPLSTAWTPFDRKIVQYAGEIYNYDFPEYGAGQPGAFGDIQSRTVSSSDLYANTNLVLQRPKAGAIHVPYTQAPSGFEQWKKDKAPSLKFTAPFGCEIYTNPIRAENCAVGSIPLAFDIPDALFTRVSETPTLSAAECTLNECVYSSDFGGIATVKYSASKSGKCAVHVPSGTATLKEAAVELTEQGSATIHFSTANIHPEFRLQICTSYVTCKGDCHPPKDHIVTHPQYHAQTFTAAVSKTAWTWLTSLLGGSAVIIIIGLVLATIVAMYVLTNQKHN
# T1 sequence 2: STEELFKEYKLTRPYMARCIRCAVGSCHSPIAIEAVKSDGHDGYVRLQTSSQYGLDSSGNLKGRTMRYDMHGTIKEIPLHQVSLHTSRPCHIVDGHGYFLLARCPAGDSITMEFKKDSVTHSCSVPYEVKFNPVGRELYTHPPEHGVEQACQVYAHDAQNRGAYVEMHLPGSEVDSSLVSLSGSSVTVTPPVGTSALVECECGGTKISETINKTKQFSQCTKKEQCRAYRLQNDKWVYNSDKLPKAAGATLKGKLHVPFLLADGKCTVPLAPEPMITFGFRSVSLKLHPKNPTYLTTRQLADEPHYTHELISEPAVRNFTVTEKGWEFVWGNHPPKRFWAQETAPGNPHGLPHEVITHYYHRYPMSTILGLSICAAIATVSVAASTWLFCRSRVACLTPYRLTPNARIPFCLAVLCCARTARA
# T2: WEEV Env-pseudotyped lentiviral reporter virus (Western equine encephalitis virus (WEEV), UniProt P13897 798-1236; P13897 320-742)
# T2 sequence 1: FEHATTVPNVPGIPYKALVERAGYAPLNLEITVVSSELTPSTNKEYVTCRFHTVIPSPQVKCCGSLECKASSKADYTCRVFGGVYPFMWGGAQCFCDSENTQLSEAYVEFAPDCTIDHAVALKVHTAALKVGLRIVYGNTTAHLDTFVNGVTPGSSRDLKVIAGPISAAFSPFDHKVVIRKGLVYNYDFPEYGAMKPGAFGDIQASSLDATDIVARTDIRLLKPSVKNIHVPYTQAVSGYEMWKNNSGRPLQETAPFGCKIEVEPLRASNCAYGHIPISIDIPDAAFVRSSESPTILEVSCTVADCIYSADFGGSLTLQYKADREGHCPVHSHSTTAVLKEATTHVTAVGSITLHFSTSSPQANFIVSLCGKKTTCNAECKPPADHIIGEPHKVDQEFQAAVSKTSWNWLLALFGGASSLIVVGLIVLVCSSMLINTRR
# T2 sequence 2: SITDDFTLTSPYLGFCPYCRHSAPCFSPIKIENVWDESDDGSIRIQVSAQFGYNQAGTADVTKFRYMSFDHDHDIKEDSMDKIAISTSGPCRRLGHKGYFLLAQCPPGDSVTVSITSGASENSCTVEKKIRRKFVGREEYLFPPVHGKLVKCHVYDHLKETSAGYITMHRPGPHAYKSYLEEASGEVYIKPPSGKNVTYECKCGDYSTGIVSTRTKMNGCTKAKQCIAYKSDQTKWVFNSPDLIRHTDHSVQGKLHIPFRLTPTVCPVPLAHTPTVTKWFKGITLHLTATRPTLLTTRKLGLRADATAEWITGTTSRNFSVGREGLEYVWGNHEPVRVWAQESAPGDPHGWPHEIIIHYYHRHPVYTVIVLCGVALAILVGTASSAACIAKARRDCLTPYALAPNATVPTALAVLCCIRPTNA
# T3: EEEV Env-pseudotyped lentiviral reporter virus (Eastern equine encephalitis virus (EEEV), UniProt P08768 799-1239; P08768 323-742)
# T3 sequence 1: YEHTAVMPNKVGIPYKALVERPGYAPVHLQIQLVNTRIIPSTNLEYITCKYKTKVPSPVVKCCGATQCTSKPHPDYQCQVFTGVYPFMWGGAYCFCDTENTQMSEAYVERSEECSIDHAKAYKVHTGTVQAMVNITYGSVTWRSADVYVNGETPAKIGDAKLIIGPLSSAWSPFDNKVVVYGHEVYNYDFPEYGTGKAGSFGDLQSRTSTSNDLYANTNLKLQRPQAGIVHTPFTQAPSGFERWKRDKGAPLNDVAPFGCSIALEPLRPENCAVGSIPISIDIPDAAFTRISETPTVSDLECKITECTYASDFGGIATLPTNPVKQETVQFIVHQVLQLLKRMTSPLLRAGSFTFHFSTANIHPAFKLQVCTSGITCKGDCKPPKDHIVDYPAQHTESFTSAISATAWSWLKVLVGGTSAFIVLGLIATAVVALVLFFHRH
# T3 sequence 2: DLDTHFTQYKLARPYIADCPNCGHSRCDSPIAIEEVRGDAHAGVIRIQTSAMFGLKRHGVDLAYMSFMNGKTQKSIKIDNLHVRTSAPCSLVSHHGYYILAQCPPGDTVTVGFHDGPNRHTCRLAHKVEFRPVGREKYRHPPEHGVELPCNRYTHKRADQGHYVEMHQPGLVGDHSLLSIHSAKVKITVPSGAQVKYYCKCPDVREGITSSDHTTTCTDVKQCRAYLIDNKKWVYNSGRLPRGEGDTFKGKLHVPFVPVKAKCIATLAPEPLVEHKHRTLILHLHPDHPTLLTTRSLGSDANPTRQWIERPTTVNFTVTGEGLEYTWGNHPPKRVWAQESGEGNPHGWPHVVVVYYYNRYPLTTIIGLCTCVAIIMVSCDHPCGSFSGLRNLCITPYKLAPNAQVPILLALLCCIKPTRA
# Columns and labels:
# [1] = target: T1, VEEV Env-pseudotyped lentiviral …; assay: cell-based or functional assay
# [2] = target: T2, WEEV Env-pseudotyped lentiviral …; assay: cell-based or functional assay
# [3] = target: T3, EEEV Env-pseudotyped lentiviral …; assay: cell-based or functional assay
# CHIKV VLP = CHIKV VLP (chikungunya virus (CHIKV), UniProt Q8JUX5 810-1248; Q8JUX5 326-748)
# Chain of CHIKV VLP (Q8JUX5 810-1248 limits assumed, chain 1 of 2): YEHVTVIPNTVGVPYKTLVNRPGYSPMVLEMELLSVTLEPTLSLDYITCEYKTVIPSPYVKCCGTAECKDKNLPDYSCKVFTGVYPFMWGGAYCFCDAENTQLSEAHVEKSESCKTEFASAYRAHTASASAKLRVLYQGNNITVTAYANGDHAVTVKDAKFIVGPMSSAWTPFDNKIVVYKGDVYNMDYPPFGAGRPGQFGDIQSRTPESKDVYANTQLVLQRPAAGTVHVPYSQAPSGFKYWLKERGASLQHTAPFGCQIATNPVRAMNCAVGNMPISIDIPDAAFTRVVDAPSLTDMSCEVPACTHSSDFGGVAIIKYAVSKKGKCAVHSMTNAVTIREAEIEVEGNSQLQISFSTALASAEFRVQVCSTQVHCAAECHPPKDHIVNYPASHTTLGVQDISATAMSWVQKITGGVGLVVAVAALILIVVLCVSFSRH
# Chain of CHIKV VLP (Q8JUX5 326-748 limits assumed, chain 2 of 2): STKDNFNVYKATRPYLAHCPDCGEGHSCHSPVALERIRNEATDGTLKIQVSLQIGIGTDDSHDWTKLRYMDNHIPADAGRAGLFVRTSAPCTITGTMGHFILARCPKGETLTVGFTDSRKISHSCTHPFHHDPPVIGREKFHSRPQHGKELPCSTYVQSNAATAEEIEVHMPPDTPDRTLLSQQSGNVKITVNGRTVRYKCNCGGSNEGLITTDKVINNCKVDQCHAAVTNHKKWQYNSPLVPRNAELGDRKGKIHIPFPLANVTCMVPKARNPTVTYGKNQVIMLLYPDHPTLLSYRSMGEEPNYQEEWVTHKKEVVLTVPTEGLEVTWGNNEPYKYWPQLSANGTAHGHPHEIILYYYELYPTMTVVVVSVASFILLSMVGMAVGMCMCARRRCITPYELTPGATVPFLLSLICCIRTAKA
binder,measurement,setting,value
"SKT05 (antibody, V domains shown) VH: EVQLVESGAGLVQPGGSLRLSCAASGFTFSDSWMSWVRQSPGKGLEWVGRIKGKPDGETAAYAASVKGRFSISRDDSKNTLYLQMNSLKTEDTAVYYCTRDDRTSCRRGVCYAAFHSWGQGVLVTVSS VL: DIQMTQSPSSLSASAGDRVTLTCRASQAISFYLAWYQQKPGKAPKRLIYDASELQGGVPSRFSGSGSGTDFTLSINSLQPEDSATYFCLQYDSPPFTFGPGTKVEIKR","IC80, neutralization of Env-pseudotyped lentiviral reporter virus",[1],0.06 µg/mL
same,"IC80, neutralization of Env-pseudotyped lentiviral reporter virus",[2],0.07 µg/mL
same,"IC80, neutralization of Env-pseudotyped lentiviral reporter virus",[3],0.39 µg/mL
same,EC50,CHIKV VLP,0.1 µg/mL
